B1: RING finger protein 11 (Homo sapiens), Q9Y3C5 (parent)
chain: MGNCLKSPTSDDISLLHESQSDRASFGEGTEPDQEPPPPYQEQVPVPVYHPTPSQTRLATQLTEEEQIRIAQRIGLIQHLPKGVYDPGRDGSEKKIRECVICMMDFVYGDPIRFLPCMHIYHLDCIDDWLMRSFTCPSCMEPVDAALLSSYETN
partner: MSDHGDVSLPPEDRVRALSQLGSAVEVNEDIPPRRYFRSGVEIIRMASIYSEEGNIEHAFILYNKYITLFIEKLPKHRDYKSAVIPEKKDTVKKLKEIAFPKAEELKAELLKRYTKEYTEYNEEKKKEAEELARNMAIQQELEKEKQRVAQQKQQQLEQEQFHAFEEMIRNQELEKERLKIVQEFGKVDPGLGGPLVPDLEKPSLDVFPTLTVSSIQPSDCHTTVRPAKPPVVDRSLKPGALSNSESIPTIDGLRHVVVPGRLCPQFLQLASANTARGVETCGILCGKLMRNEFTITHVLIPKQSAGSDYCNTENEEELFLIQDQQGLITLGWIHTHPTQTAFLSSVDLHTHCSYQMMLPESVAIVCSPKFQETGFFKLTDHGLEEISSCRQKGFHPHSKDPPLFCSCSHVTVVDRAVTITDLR

This assay covers variants of B1. The settings on record: with stabp_human STAMBP.
For MGNCLKSPTSDDISLLHESQSDRASFGEGTEPDQEPPPPYQEQVPVPVYHPTPSQTRLATQLTEEEQIRIAQRIGLIQHLPKGVYDPGRDGSEKKIREAVICMMDFVYGDPIRFLPCMHIYHLDCIDDWLMRSFTCPSCMEPVDAALLSSYETN, the “effect of a mutation on the interaction” value is “decreasing interaction”.

The record behind these values is IntAct's records for PubMed 14755250.
